Data published in publication PMC11962161.

Tests used:
[1] = target: FCA-mScarlet-I (Arabidopsis thaliana); test: single-particle tracking with stepwise photobleaching (SlimVar microscopy); fluorescent FCA fusions in nuclei of living Arabidopsis root tissue, 10 ms/frame; molecules per tracked particle from initial intensity over single-molecule brightness; control and sof78 backgrounds for FCA-eGFP
[2] = target: MBP-PrLD (purified recombinant FCA C-terminal half containing prion-like domains) (Arabidopsis); test: SEC-MALS; Superdex-200 10/300 GL, 40 mM Tris-HCl pH 7.4, 500 mM NaCl; protein at 2 mg/mL; self-association

Row | Substance | stoichiometry N [1] | stoichiometry N [2]
1 | FCA-mScarlet-I (natural protein) | 4 molecules | 
2 | MBP-PrLD (purified recombinant FCA C-terminal half containing prion-like domains) (domain or fragment) |  | > 100 molecules
